Measurements: US7696171
Read-outs that look alike come from different tables or passages of the source.

Legend:
FGF receptor (FGFR) [1] = experiment: cell-based or functional assay
FGF receptor (FGFR) [2] = experiment: cell-based or functional assay; remark: listed apart in the source

“FGF-1 Glu87→Val/Pro134→Val mutant (in the WT* Cys117→Val background) (from UniProt P05230 16-155) (ligand)” gave a mitogenic activity (NIH 3T3 fibroblast proliferation, EC50) (fold reduction) (FGF receptor (FGFR) [1]) of 2 and a mitogenic activity (NIH 3T3 fibroblast proliferation, EC50) (fold reduction) (FGF receptor (FGFR) [2]) of 3.
In the case of “FGF-1 Lys12→Val/Asn95→Val mutant (in the WT* Cys117→Val background) (from UniProt P05230 16-155) (ligand)”, the mitogenic activity (NIH 3T3 fibroblast proliferation, EC50) (fold reduction) (FGF receptor (FGFR) [2]) is reported as 1000.
